Experimental findings from PMC9482650, “Quantitative fragmentomics allow affinity mapping of interactomes” (Nature Communications, 2022) are described below.

Positions count from the first letter of the chain named.

Targets include MAST2, Q6P0Q8; FRMPD2_2, Q68DX3; Inadl_3, Q8NI35; DLG1_2, Q12959; PTPN3, P26045; SCRIB_2, Q14160; LNX1_2, Q8TBB1; SNX27, Q96L92; FRMPD3, Q5JV73; DLG4_2, P78352; HTRA1, Q92743.
Holding throughout (experiment): holdup assay
What all share (set-up): key: below the threshold = too weak to quantify, mostly under pKd 3.1 to 4

A further test has as its target T1, DFNB31_1, Q9P202.
T1 sequence (Q9P202 135-233, limits assumed, looked up): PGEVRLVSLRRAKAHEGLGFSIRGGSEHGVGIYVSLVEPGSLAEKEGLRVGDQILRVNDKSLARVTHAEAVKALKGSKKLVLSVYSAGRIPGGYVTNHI

The target of the next test is T2, PDZD7_3, Q9H5P4.
T2 sequence (Q9H5P4 857-944, limits assumed, looked up): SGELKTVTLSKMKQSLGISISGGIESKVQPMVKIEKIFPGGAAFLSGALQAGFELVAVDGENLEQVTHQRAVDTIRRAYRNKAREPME

The target in another test is T3, NHERF3_4, Q5T2W1.
T3 sequence (Q5T2W1 373-468, limits assumed, looked up): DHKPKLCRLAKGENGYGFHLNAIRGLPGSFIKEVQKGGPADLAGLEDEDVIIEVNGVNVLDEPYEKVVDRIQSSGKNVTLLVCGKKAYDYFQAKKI

A further test addresses T4, FRMPD1, Q5SYB0.
T4 sequence (Q5SYB0 52-145, limits assumed, looked up): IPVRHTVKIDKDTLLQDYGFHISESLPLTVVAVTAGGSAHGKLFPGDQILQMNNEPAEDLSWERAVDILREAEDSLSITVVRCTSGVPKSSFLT

A further test addresses T5, PDZRN3_1, Q9UPQ7.
T5 sequence (Q9UPQ7 244-349, limits assumed, looked up): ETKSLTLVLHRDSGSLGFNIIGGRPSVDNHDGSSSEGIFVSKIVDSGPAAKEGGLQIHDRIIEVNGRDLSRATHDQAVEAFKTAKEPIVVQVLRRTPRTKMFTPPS

The target of the next test is T6, SYNJ2BP, P57105.
T6 sequence (P57105 8-110, limits assumed, looked up): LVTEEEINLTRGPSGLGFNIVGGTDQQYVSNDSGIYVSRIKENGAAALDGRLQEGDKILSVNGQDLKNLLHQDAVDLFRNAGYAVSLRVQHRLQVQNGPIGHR

Another test concerns the target T7, LIN7A, O14910.
T7 sequence (O14910 103-200, limits assumed, looked up): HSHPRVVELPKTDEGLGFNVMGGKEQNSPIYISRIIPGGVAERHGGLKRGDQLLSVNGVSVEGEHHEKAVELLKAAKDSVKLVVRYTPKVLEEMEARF

A further test concerns the target T8, MPDZ_10, O75970.
T8 sequence (O75970 1624-1722, limits assumed, looked up): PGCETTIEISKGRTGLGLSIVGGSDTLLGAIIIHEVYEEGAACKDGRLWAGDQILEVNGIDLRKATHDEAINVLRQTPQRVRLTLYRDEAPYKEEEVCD

The target of a further test is T9, SIPA1L2, Q9P2F8.
T9 sequence (Q9P2F8 945-1036, limits assumed, looked up): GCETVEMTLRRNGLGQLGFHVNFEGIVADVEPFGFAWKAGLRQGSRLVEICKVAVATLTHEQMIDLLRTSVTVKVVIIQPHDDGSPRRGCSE

A further test addresses T10, RAPGEF6, Q8TEU7.
T10 sequence (Q8TEU7 525-625, limits assumed, looked up): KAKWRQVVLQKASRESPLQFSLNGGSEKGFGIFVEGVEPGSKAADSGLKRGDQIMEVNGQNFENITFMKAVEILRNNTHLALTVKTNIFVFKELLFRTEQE

The target in another test is T11, TIAM2, Q8IVF5.
T11 sequence (Q8IVF5 885-986, limits assumed, looked up): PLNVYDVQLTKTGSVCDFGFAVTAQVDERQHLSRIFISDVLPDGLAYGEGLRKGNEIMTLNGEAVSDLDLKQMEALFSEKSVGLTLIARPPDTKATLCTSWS

The next test has as its target T12, LNX2_2, Q8N448.
T12 sequence (Q8N448 334-432, limits assumed, looked up): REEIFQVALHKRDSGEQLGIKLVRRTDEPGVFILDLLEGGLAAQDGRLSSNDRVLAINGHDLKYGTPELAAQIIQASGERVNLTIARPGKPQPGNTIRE

The target in the next test is T13, LIN7B, Q9HAP6.
T13 sequence (Q9HAP6 88-185, limits assumed, looked up): T7 sequence (O14910 103-200, limits assumed, looked up) with S2A, V20I, I35V, E42D, H65Q, K77Q, D78G, K89R

[1] abbreviates: plain residues with an end cap or a label only (N-terminal biotin on a linker: ado-ado).
[2] abbreviates: modified: phospho on T at position -2 from the C-terminal residue.

Sequence of Inadl_3, Q8NI35 (Q8NI35 359-469): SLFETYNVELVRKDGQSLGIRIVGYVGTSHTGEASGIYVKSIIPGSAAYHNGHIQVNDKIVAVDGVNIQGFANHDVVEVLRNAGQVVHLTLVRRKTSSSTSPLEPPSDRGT
Sequence of DLG4_2, P78352 (P78352 155-259): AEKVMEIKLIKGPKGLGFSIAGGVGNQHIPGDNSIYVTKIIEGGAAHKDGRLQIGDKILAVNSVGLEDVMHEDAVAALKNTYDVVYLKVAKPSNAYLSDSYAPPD
Sequence of MAST2, Q6P0Q8 (Q6P0Q8 1099-1202): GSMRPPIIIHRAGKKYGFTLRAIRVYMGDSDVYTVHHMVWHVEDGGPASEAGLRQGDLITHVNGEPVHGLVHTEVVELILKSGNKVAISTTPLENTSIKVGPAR
Sequence of DLG1_2, Q12959 (Q12959 314-412): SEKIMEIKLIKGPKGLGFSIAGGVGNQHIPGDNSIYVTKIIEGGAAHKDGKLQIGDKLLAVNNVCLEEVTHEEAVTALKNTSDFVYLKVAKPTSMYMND
Sequence of FRMPD3, Q5JV73 (Q5JV73 12-100): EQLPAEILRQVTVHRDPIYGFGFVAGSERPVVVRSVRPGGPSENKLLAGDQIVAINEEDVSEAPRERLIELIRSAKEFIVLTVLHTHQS
Sequence of LNX1_2, Q8TBB1 (Q8TBB1 371-470): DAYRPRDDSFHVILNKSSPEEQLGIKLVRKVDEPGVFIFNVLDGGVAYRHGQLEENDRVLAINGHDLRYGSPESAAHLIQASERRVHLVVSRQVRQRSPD
Sequence of SCRIB_2, Q14160 (Q14160 857-960): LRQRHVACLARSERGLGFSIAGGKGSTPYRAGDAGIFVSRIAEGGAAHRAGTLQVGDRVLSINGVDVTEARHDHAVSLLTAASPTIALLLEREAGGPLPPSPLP
Sequence of PTPN3, P26045 (P26045 505-587): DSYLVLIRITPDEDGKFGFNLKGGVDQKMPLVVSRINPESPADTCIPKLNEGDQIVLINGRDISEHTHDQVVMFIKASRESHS
Sequence of HTRA1, Q92743 (Q92743 360-477): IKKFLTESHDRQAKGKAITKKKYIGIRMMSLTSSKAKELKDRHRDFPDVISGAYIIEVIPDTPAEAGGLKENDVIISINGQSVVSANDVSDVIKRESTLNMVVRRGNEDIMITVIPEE
Sequence of FRMPD2_2, Q68DX3 (Q68DX3 944-1038): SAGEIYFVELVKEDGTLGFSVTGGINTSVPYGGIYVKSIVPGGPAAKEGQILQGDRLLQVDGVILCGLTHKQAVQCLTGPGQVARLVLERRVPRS

Turning to SMLNRRTTPV [CACNG4, Q9UBN1], the pKd is 4 with DFNB31_1, Q9P202 (setting [1]); 4.65 in the test with MAST2, Q6P0Q8 (setting [1]); 3.55 with FRMPD2_2, Q68DX3 (setting [1]); 4.07 in the test with PDZD7_3, Q9H5P4 (setting [1]); 3.5 in the test with NHERF3_4, Q5T2W1 (setting [1]); “below the threshold” with FRMPD1, Q5SYB0 (setting [1]). For the same molecule, the pKd entry with Inadl_3, Q8NI35 (setting [1]) was “below the threshold”; with PDZRN3_1, Q9UPQ7 (setting [1]) it was 4.35; with SYNJ2BP, P57105 (setting [1]), 5.12; in the test with DLG1_2, Q12959 (setting [1]), 4.98; with LIN7A, O14910 (setting [1]) it was “below the threshold”; with PTPN3, P26045 (setting [1]), 4.54. Further, the pKd in the test with MPDZ_10, O75970 (setting [1]) is 3.92; in the test with SIPA1L2, Q9P2F8 (setting [1]) it was “below the threshold”; in the test with SCRIB_2, Q14160 (setting [1]), 3.53; with RAPGEF6, Q8TEU7 (setting [1]), “below the threshold”; with TIAM2, Q8IVF5 (setting [1]) it was “below the threshold”; with LNX2_2, Q8N448 (setting [1]), “below the threshold”. In addition, the pKd entry is “below the threshold” in the test with LIN7B, Q9HAP6 (setting [1]); 3.75 in the test with LNX1_2, Q8TBB1 (setting [1]); 4.93 with SNX27, Q96L92 (setting [1]); “below the threshold” with FRMPD3, Q5JV73 (setting [1]); 4.88 with DLG4_2, P78352 (setting [1]); 4.36 in the test with HTRA1, Q92743 (setting [1]).

On to EEDTAEKDEL [HSPA5, P11021], for which the pKd result in the test with DFNB31_1, Q9P202 (setting [1]) is “below the threshold”; with MAST2, Q6P0Q8 (setting [1]), 3.7; with FRMPD2_2, Q68DX3 (setting [1]), “below the threshold”; with PDZD7_3, Q9H5P4 (setting [1]) it was “below the threshold”; in the test with NHERF3_4, Q5T2W1 (setting [1]), “below the threshold”; in the test with FRMPD1, Q5SYB0 (setting [1]), “below the threshold”. Also, the pKd entry in the test with Inadl_3, Q8NI35 (setting [1]) was “below the threshold”; with PDZRN3_1, Q9UPQ7 (setting [1]), “below the threshold”; in the test with SYNJ2BP, P57105 (setting [1]) it was 3.52; in the test with DLG1_2, Q12959 (setting [1]), “below the threshold”; with LIN7A, O14910 (setting [1]), 3.49; with PTPN3, P26045 (setting [1]), “below the threshold”. In addition, the pKd result with MPDZ_10, O75970 (setting [1]) is listed as “below the threshold”; with SIPA1L2, Q9P2F8 (setting [1]) it was “below the threshold”; with SCRIB_2, Q14160 (setting [1]) it was “below the threshold”; with RAPGEF6, Q8TEU7 (setting [1]) it was “below the threshold”; in the test with TIAM2, Q8IVF5 (setting [1]) it was “below the threshold”; with LNX2_2, Q8N448 (setting [1]), “below the threshold”. In addition, the pKd entry is “below the threshold” with LIN7B, Q9HAP6 (setting [1]); “below the threshold” with LNX1_2, Q8TBB1 (setting [1]); 3.61 with SNX27, Q96L92 (setting [1]); “below the threshold” with FRMPD3, Q5JV73 (setting [1]); 3.5 in the test with DLG4_2, P78352 (setting [1]); “below the threshold” with HTRA1, Q92743 (setting [1]).

For the molecule LSEFKAMDSF [CTNNA2, P26232], the pKd result is “below the threshold” with DFNB31_1, Q9P202 (setting [1]); “below the threshold” with MAST2, Q6P0Q8 (setting [1]); “below the threshold” in the test with FRMPD2_2, Q68DX3 (setting [1]); “below the threshold” in the test with PDZD7_3, Q9H5P4 (setting [1]); “below the threshold” with NHERF3_4, Q5T2W1 (setting [1]); “below the threshold” in the test with FRMPD1, Q5SYB0 (setting [1]). For the same molecule, the pKd entry is listed as “below the threshold” with Inadl_3, Q8NI35 (setting [1]); “below the threshold” with PDZRN3_1, Q9UPQ7 (setting [1]); “below the threshold” in the test with SYNJ2BP, P57105 (setting [1]); “below the threshold” with DLG1_2, Q12959 (setting [1]); “below the threshold” in the test with LIN7A, O14910 (setting [1]); “below the threshold” with PTPN3, P26045 (setting [1]). Further, the pKd entry with MPDZ_10, O75970 (setting [1]) was “below the threshold”; with SIPA1L2, Q9P2F8 (setting [1]) it was “below the threshold”; with SCRIB_2, Q14160 (setting [1]) it was “below the threshold”; in the test with RAPGEF6, Q8TEU7 (setting [1]), “below the threshold”; in the test with TIAM2, Q8IVF5 (setting [1]), 4.11; in the test with LNX2_2, Q8N448 (setting [1]), “below the threshold”. Besides, the pKd with LIN7B, Q9HAP6 (setting [1]) was 3.85; in the test with LNX1_2, Q8TBB1 (setting [1]) it was “below the threshold”; with SNX27, Q96L92 (setting [1]) it was “below the threshold”; in the test with FRMPD3, Q5JV73 (setting [1]) it was “below the threshold”; with DLG4_2, P78352 (setting [1]), “below the threshold”; with HTRA1, Q92743 (setting [1]), “below the threshold”.

On to RRVRKLPSTTL [RPS6KA1_-2P, Q15418], for which the pKd entry with DFNB31_1, Q9P202 (setting [2]) was “below the threshold”; in the test with MAST2, Q6P0Q8 (setting [2]) it was “below the threshold”; with FRMPD2_2, Q68DX3 (setting [2]) it was “below the threshold”; with PDZD7_3, Q9H5P4 (setting [2]) it was 3.5; with NHERF3_4, Q5T2W1 (setting [2]), “below the threshold”; with FRMPD1, Q5SYB0 (setting [2]), “below the threshold”. Besides, the pKd entry in the test with Inadl_3, Q8NI35 (setting [2]) is recorded as “below the threshold”; with PDZRN3_1, Q9UPQ7 (setting [2]) it was “below the threshold”; with SYNJ2BP, P57105 (setting [2]), “below the threshold”; in the test with DLG1_2, Q12959 (setting [2]), “below the threshold”; in the test with LIN7A, O14910 (setting [2]), “below the threshold”; in the test with PTPN3, P26045 (setting [2]), “below the threshold”. The pKd entry is on record as “below the threshold” with MPDZ_10, O75970 (setting [2]); “below the threshold” with SIPA1L2, Q9P2F8 (setting [2]); “below the threshold” with SCRIB_2, Q14160 (setting [2]); “below the threshold” with RAPGEF6, Q8TEU7 (setting [2]); “below the threshold” in the test with TIAM2, Q8IVF5 (setting [2]); “below the threshold” with LNX2_2, Q8N448 (setting [2]). For the same molecule, the pKd entry with LIN7B, Q9HAP6 (setting [2]) was “below the threshold”; in the test with LNX1_2, Q8TBB1 (setting [2]) it was “below the threshold”; with SNX27, Q96L92 (setting [2]), “below the threshold”; with FRMPD3, Q5JV73 (setting [2]), “below the threshold”; with DLG4_2, P78352 (setting [2]) it was “below the threshold”; with HTRA1, Q92743 (setting [2]), 3.65.
